# Test results published in paper PMC11162772, “FUS reads histone H3K36me3 to regulate alternative polyadenylation”.
# Columns and labels:
# [1] = molecular target: FUS-ΔZNF (UniProt P35637 1-421+454-526, internal_change); assay: MST; no significant decrease vs WT; MST: PBS with 0.05% BSA and 0.05% Tween-20, 5 nM Cy5-RNA, temperature not stated; nucleosome pull-down buffer not given; conditions: protein: recombinant; tags: GST (pGEX-6p-2); label: 3' Cy5
# [2] = molecular target: FUS P421L (so in the source) (UniProt P35637 1-526, P431L); assay: MST; slightly increased affinity vs WT; MST: PBS with 0.05% BSA and 0.05% Tween-20, 5 nM Cy5-RNA, temperature not stated; nucleosome pull-down buffer not given; conditions: protein: recombinant; tags: GST (pGEX-6p-2); label: 3' Cy5
# Chain of FUS P421L (so in the source) (P35637 whole entry P431L): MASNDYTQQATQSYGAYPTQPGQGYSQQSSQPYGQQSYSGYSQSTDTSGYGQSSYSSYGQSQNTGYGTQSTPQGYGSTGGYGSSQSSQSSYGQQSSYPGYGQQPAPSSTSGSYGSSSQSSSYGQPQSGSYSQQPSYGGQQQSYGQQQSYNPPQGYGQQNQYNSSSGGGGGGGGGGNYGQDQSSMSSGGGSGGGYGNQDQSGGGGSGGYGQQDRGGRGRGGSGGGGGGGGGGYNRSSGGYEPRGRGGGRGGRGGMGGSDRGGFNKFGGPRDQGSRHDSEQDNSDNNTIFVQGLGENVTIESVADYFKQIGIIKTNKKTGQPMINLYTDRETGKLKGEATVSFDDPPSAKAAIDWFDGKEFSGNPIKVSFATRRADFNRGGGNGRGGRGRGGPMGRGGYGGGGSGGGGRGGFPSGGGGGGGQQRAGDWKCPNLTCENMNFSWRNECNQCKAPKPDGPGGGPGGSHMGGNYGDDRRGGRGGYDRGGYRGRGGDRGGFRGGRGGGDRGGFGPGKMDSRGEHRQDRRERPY
# Chain of FUS-ΔZNF (P35637 other isoform, or with tags, fused parts or gaps | mutant): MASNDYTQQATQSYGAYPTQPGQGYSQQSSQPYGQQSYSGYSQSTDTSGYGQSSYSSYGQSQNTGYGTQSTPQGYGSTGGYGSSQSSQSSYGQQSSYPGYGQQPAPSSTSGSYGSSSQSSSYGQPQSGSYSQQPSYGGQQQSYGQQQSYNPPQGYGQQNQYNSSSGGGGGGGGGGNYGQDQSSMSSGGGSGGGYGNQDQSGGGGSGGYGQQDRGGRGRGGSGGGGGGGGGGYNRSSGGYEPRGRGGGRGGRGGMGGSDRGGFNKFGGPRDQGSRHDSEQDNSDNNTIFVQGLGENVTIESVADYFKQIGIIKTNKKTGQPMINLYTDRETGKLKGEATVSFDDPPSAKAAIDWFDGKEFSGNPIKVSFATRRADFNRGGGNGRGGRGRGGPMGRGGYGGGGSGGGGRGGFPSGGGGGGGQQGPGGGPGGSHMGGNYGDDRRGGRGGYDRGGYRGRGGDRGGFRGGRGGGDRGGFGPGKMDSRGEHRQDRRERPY
Binder,binding result [1],binding result [2]
UUAGGGUUAGGGUUAGGGUUAGGG (ssRNA) [4XUUAGGG-3'Cy5],binds,
GGUGGGUGGGUGGGUGGGUG (ssRNA) [5XGGUG-3'Cy5],binds,binds
